Experimental data taken from publication doi:10.1101/2021.07.20.452843 (bioRxiv, 2021).

Biological target: the molecule itself
Assay: SEC

B1: His-PodJ(1-635) (domain or fragment, Caulobacter crescentus, UniProt Q9ZG88 1-635, looked up)
chain: MTAASPWSVKGIDPKAREVAKDLARRSGMTLGEWLNRMIIEGDGQTADPRLAGDDVPNRAYLEIVKDDAPPRIEIAEHPADEVGRVALALDRLTQRIEAAEGRNAAAITGIDHSVRDALTRLGASEREQIAVAARFEGAVDELKTEQARATERLRRIESEAAGPRSAEALRALEGALGKVAGHLYEGEARTREAIATLEAKLNQQSSGDPSALVEAVVARLGERLEAAETRTSDALRELGASFQALDQRLGAVETANPATGVQEGLDSLAATLTQKMEAARLEMAAKLRESADGRFDRMERKLGEMAAHVQAAEQRSAQAIERMGREIVGVADAFNRRVHAAESRNASAIEQVGGEVARIAASVEHKLNRADSVQAQALEKLGGEIARITEKLAERIGSAERRNALAIDDVGEQVARVTERLNQRHERSSQELVDRIRQSEERTLRMLEEAREKIDSRLSEAQRKLEAAPPSPPPAQAPAPVATAQRPVPPAASPFEDNYFSQAASFSTSEDEADAFDAPPAPARSFEVAEFPAAEPEEPAFAHDDYAIADGFEPESPRYEVEPEVSDFAPAEPSRPMSTRDIIEQARAAARAAAASEGKGGKAKSAKKEKASKASGSLFSGFGGFSTKKSKARL
binding result: binds
